# From patent US20080020978A1 (Amgen, published 2008)
# Numbered stars: 1 amine (or outer) side, 2 acyl side, 3 side chain; on linkers, the order of the positions; unused ones are H or OH. Square brackets hold non-standard residues; d marks the D form. Ends that are not written are not given here. * marks the point of attachment. 20 kDa MeO‑PEG = methoxy-polyethylene glycol of 20 kDa conjugated to the residue side chain; 13C1,2Ac = N-terminal acetyl group labelled with 13C at carbons 1 and 2, [13CH3][13C](=O)*; 15N‑F = phenylalanine labelled with 15N, O=C([C@H](Cc1ccccc1)[15NH][*:1])[*:2]; Cit = NC(=O)NCCC[C@H](N)C(=O)O
# B1: SEQ ID NO 850 (peptide)
# peptide: Ac-WVTHRLAGLAS[Cit]SGGVVRKNFVPTDVGPFAF-NH2
# SMILES: CC(=O)N[C@@H](Cc1c[nH]c2ccccc12)C(=O)N[C@H](C(=O)N[C@H](C(=O)N[C@@H](Cc1c[nH]cn1)C(=O)N[C@@H](CCCNC(=N)N)C(=O)N[C@@H](CC(C)C)C(=O)N[C@@H](C)C(=O)NCC(=O)N[C@@H](CC(C)C)C(=O)N[C@@H](C)C(=O)N[C@@H](CO)C(=O)N[C@@H](CCCNC(N)=O)C(=O)N[C@@H](CO)C(=O)NCC(=O)NCC(=O)N[C@H](C(=O)N[C@H](C(=O)N[C@@H](CCCNC(=N)N)C(=O)N[C@@H](CCCCN)C(=O)N[C@@H](CC(N)=O)C(=O)N[C@@H](Cc1ccccc1)C(=O)N[C@H](C(=O)N1CCC[C@H]1C(=O)N[C@H](C(=O)N[C@@H](CC(=O)O)C(=O)N[C@H](C(=O)NCC(=O)N1CCC[C@H]1C(=O)N[C@@H](Cc1ccccc1)C(=O)N[C@@H](C)C(=O)N[C@@H](Cc1ccccc1)C(N)=O)C(C)C)[C@@H](C)O)C(C)C)C(C)C)C(C)C)[C@@H](C)O)C(C)C
# B2: SEQ ID NO 231 (peptide)
# peptide: Ac-WVTHRLAGLLSRSGGVVKCNFVPTDVGPFAF-NH2
# modifications: not fully specified (residue 19); printed as Ac-WVTHRLAGLLSRSGGVVKC^(20 kDa PEG)NFVPTDVGPFAF-amide
# B3: SEQ ID NO 681 (peptide)
# peptide: Ac-WVTHRLAGLLSRSGGVVRCNFVPTDVGPFAF-NH2
# modifications: not fully specified (residue 19); printed as Ac-WVTHRLAGLLSRSGGVVRC^(20 kDa PEG)NFVPTDVGPFAF-amide
# B4: SEQ ID NO 683 (peptide)
# peptide: Ac-WVTHRLAGLLSRSGGVVCNNFVPTDVGPFAF-NH2
# modifications: not fully specified (residue 18); printed as Ac-WVTHRLAGLLSRSGGVVC^(20 kDa PEG)NNFVPTDVGPFAF-amide
# Target: T1, CGRP1 receptor (CRLR/RAMP1 complex) of human neuroblastoma SK-N-MC cells (human, UniProt Q16602 23-461; O60894 27-148)
# Assay: cell-based or functional assay
# T1 sequence (Q16602 23-461, chain 1 of 2): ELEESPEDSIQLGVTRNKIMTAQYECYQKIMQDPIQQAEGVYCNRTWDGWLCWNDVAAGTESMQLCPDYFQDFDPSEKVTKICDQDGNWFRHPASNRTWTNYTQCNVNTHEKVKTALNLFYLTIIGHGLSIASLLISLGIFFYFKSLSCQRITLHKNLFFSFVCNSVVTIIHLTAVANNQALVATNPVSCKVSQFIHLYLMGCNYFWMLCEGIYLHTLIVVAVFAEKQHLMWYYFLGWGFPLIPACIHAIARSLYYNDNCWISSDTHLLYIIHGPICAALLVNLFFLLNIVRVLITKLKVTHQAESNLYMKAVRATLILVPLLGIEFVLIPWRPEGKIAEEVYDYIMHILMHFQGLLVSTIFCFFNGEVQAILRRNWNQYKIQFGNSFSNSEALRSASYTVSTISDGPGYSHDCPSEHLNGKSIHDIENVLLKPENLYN
# T1 sequence (O60894 27-148, chain 2 of 2): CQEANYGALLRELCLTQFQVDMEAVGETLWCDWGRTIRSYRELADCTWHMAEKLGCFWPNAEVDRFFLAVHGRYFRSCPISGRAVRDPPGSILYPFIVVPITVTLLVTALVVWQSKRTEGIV
row,IC50 [nM],Binder
1,> 1000,Ac-WVTH[Cit]LAGLAS[Cit]SGGVVRK(20 kDa MeO‑PEG)NFVPTDVGPFAF-NH2 [SEQ ID NO 853]
2,0.51,Ac-WVTHRLAGLLSRSGGVKRNNFVPTDVGPFAF-NH2 [SEQ ID NO 823]
3,0.98,Ac-WVTHRLAGLLSRSGGVK(20 kDa MeO‑PEG)RNNFVPTDVGPFAF-NH2 [SEQ ID NO 824]
4,0.47,Ac-WVTHRLAGLLSQSGGVVRKNFVPTDVGPFAF-NH2 [SEQ ID NO 814]
5,0.36,Ac-WVTHRLAGLLSRSGGVCRNNFVPTDVGPFAF-NH2 [SEQ ID NO 820]
6,23.4,Ac-WVTH[Cit]LAGLAS[Cit]SGGVVRKNFVPTDVGPFAF-NH2 [SEQ ID NO 852]
7,0.46,Ac-WVTHRLAGLLSQSGGVVRK(20 kDa MeO‑PEG)NFVPTDVGPFAF-NH2 [SEQ ID NO 815]
8,1.85,B1
9,0.53,Ac-WVTHQLAGLLSQSGGVVRKNFVPTDVGPFAF-NH2 [SEQ ID NO 816]
10,7.18,Ac-WVTHQLAGLLSQSGGVVRK(20 kDa MeO‑PEG)NFVPTDVGPFAF-NH2 [SEQ ID NO 818]
11,0.33,WVTHRLAGLLSXSGGVVRKNFVPTDVGPFAF (Ac-WVTHRLAGLLS[hArg]SGGVVRK^(20 kDa MeO-PEG)NFVPTDVGPFAF-amide) [SEQ ID NO 787]
12,2.08,WVTHXLAGLLSRSGGVVRKNFVPTDVGPFAF (Ac-WVTH[Cit]LAGLLSRSGGV VRK^(20 kDa MeO-PEG)NFVPTDVGPFAF-amide) [SEQ ID NO 799]
13,0.44,WVTHXLAGLLSRSGGVVRKNFVPTDVGPFAF (Ac-WVTH[hArg]LAGLLSRSGGVVRKNFVPTDVGPFAF-amide) [SEQ ID NO 788]
14,1.7,WVTHXLAGLLSXSGGVVRKNFVPTDVGPFAF (Ac-WVTH[Cit]LAGLLS[Cit]SGG VVRKNFVPTDVGPFAF-amide) [SEQ ID NO 790]
15,1.64,WVTHRLAGLLSRSGGVVRNCFVPTDVGPFAF (Ac-WVTHRLAGLLSRSGGVVRNC^(20 kDa MeO-PEG)FVPTDVGPFAF-amide) [SEQ ID NO 801]
16,0.36,WVTHXLAGLLSRSGGVVRKNFVPTDVGPFAF (Ac-WVTH[hArg]LAGLLSRSGGVVRK^(20 kDa MeO-PEG)NFVPTDVGPFAF-amide) [SEQ ID NO 789]
17,0.57,WVTHXLAGLLSRSGGVVRKNFVPTDVGPFAF (Ac-WVTH[Cit]LAGLLSRSGGV VRKNFVPTDVGPFAF-amide) [SEQ ID NO 798]
18,0.58,WVTHRLAGLLSXSGGVVRKNFVPTDVGPFAF (Ac-WVTHRLAGLLS[Cit]SGG VVRKNFVPTDVGPFAF-amide) [SEQ ID NO 796]
19,0.96,WVTHRLAGLLSXSGGVVRKNFVPTDVGPFAF (Ac-WVTHRLAGLLS[Cit]SGG VVRK^(20 kDa MeO-PEG)NFVPTDVGPFAF-amide) [SEQ ID NO 797]
20,3.28,"{13C1,2Ac}-WVTHRLAGLLSRSGGVVRK(20 kDa MeO‑PEG)NFVPTDVGPFA[15N‑F]-NH2 [SEQ ID NO 803]"
21,0.16,Ac-WVTHRLAGLLSRSGGVC(20 kDa MeO‑PEG)RNNFVPTDVGPFAF-NH2 [SEQ ID NO 821]
22,228,Ac-WVTHRLAGLAS[Cit]SGGVVRK(MeO‑PEG 20 kDa)NFVPTDVGPFAF-NH2 [SEQ ID NO 851]
23,1.27,Ac-WVTHRLAGLLSRPGGVVRKNFVPTDVGPFAF-NH2 [SEQ ID NO 854]
24,5.24,Ac-WVTHQLAGLLSQSGGVVRK(20 kDa MeO‑PEG)NFVPTDVGPFAF-NH2 [SEQ ID NO 817]
25,18,Ac-WVTHRLAGLLSRPGGVVRK(20 kDa MeO‑PEG)NFVPTDVGPFAF-NH2 [SEQ ID NO 855]

# Target: T1, CGRP1 receptor (CRLR/RAMP1 complex) of …
# Assay: 125I-hαCGRP competition, SK-N-MC membranes
# Experimental: CGRP₁ binding experiments. […] The plates were incubated at room temperature for 2 hour with shaking at 60 rpm, then the contents of each well were filtered over 0.5% polyethyleneimine (PEI)-treated (at least one hour) GF/C 96-well filter plates. The GF/C filter plates were washed 6 times with ice-cold 50 mM Tris, pH 7.5 and dried in an oven at 55 C for 1 hour. The bottoms of the GF/C plates were then sealed, and 40 μl Microscint™ 20 was added to each well, then the tops of the GF/C plates were sealed with TopSeal™-A, a press-on adhesive sealing film, and the GF/C plates were counted with TopCount NXT (Packard). The data were analyzed by using ActivityBase (IDBS) or Prizm (GraphPad) software.
row,Ki [nM],Binder
1,17.5,VTHRLAGLLSRSGGVVKCNFVPTNVGSKAF (VTHRLAGLLSRSGGVVKC^(5 kDa MeO-PEG)NFVPTNVGSKAF-amide) [SEQ ID NO 693]
2,157,VTHRLAGLLSRSGGVVC(MeO‑PEG 5 kDa)NNFVPTNVGSKAF-NH2 [SEQ ID NO 691]
3,0.06,Ac-VTHRLAGLLSRSGGVVRK(PEG 5 kDa)NFVPTDVGPFAF-NH2 [SEQ ID NO 229]
4,31.8,VTHRLAGLLSRSGGVVKCNFVPTNVGSKAF (VTHRLAGLLSRSGGVVKC^(5 kDa MeO-PEG)NFVPTNVGSKAF-amide) [SEQ ID NO 694]
5,0.27,B2
6,5.44,WVTHRLAGLLSRSGGVVKCNFVPTNVGSKAF (WVTHRLAGLLSRSGGVVKC^(5 kDa MeO-PEG)NFVPTNVGSKAF-amide) [SEQ ID NO 695]
7,0.58,Ac-WVTHRLAGLLSRSGGVVRCNFVPTDVGPFAF-NH2 [SEQ ID NO 680]
8,0.34,Ac-WVTHRLAGLLSRSGGVVCNNFVPTDVGPFAF-NH2 [SEQ ID NO 682]
9,0.6,B3
10,1.58,B4
11,0.08,Ac-WVTHRLAGLLSRSGGVVKNNFVPTDVGPFAF-NH2 [SEQ ID NO 684]
12,5.74,C(MeO‑PEG 5 kDa)GGGGGGGWVTHRLAGLLSRSGGVVKNNFVPTDVGPFAF-NH2 [SEQ ID NO 697]
13,0.17,Ac-VTHRLAGLLSRSGGVVRK(20 kDa PEG)NFVPTDVGPFAF-NH2 [SEQ ID NO 230]
14,0.95,WVTHRLAGLLSRSGGVVKCNFVPTDVGPFAF-NH2 [SEQ ID NO 689]
15,3070,C(MeO‑PEG 5 kDa)GGGGGGGVTHRLAGLLSRSGGVVKNNFVPTNVGSKAF-NH2 [SEQ ID NO 690]
16,20.8,CGGGGGGGVTHRLAGLLSRSGGVVKNNFVPTDVGPFAF-NH2 (not fully specified (residue 1)) [SEQ ID NO 692]
17,0.64,WVTHXLAGLLSXSGGVVXKNFVPTDVGPXAF (Ac-WVTH[Cit]LAGLLS[Cit]SGGVV[hArg]KNFVPTDVGP[1-Nal]AF-NH2) [SEQ ID NO 674]
18,1.27,WVTHXLAGLLSXSGGVVXKNFVPTDVGXFAF (Ac-WVTH[Cit]LAGLLS[Cit]SGGVV[hArg]K(20 KPEGald)NFVPTDVG[Oic]FAF-NH2) [SEQ ID NO 172]
19,0.27,Ac-WVTHRLAGLLSRSGGVVKC(PEG 30 kDa)NFVPTDVGPFAF-NH2 [SEQ ID NO 232]
20,0.21,WVTHRLAGLLSRSGGVVKC(MeO‑PEG 5 kDa)NFVPTDVGPFAF-NH2 [SEQ ID NO 696]
